The supplement of paper PMC9170038

Test system: MS2 coat protein
Test: apparent KD of MS2 coat protein; designed switch direction (-1 OFF switch, 1 ON switch): -1; higher = weaker reporter binding
Procedure, shortened: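 RNA switches sharing common flanks were transcribed by stalled E. coli RNA polymerase on Illumina chips. A doubling series of SNAP-549-labelled MS2 coat protein, from 0.7 or 1.5 nM to 3 µM, was applied in Tris-HCl pH 7.5 buffer with KCl, MgCl2, BSA, DTT, tRNA and Tween-20. Each step lasted 0.8–1.5 h at the bottom of the series and 10–20 min at the top. Normalised cluster fluorescence was curve-fitted, giving apparent KD as the per-design median over clusters.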

[1] = Eterna round: R95, input ligand: FMN 200 uM
[2] = Eterna round: R95, input ligand: microRNA oligo, concentration not stated
[3] = Eterna round: R95, input ligand: none
[4] = input ligand: microRNA oligo, concentration not stated

For “UAGAAAUUCAACGAGUGAAACAUGAGGAUCACCCAUGUGGUGGUAAGGAACAAGCUUUUUGCACGUACUUAUAAGAA [JR_SV3TOV1_Sub003] (puzzle: Sensor v3, turn-off variant 1)”, the “apparent KD of MS2 coat protein” value [1] was 239 nM, the “apparent KD of MS2 coat protein” value [2] was 422 nM and the “apparent KD of MS2 coat protein” value [3] was 437 nM.

“UAGAGACAUGAGGAUCACCCAUGUGAGGAUAUAGAGGAAGAUUGCGAGAGGGAGAGGACUAGAAGGCACAGUGA [JR_Exclu1_Sub034] (puzzle: Exclusion 1)” was tested, and the “apparent KD of MS2 coat protein” value [1] was 31.4 nM, the “apparent KD of MS2 coat protein” value [2] was 35.2 nM and the “apparent KD of MS2 coat protein” value [3] was 47.5 nM.

“UAGAUGUGAGGAUAUGGUAAAGAUAAGAUGAUGAAAGAACUCCAGAAGGCACAUGAGGAUCACCCAUGUAGAUG [JL-ex4-2.15 Jieux mod] (puzzle: Exclusion 4)” was tested, and the “apparent KD of MS2 coat protein” value [1] was 78.1 nM, the “apparent KD of MS2 coat protein” value [2] was 22.3 nM and the “apparent KD of MS2 coat protein” value [3] was 26 nM.

With “UAGCAAGCAAUAAGAUCCCACAUGAGGAUCACCCAUGUGCUCGUCUUAUAAAAGGUUUCGACGAAAACGUCGAGACC [Eli 91 v28] (Eterna round: R97, puzzle: Sensor, turn-off variant 1)” the “apparent KD of MS2 coat protein” value (input ligand: FMN 200 uM) was 19.8 nM and the “apparent KD of MS2 coat protein” value (input ligand: none) was 16 nM.

In the case of “UAGCAUUGCCAAAGGUAGUGCUUUACAUGAGGAUCACCCAUGUAGGAUAUGGUAGGCAAAGCUUACCAGAAGGACAUGAUAAUU [Mat - Exclusion NG 3 - Mod of JL - D12] (Eterna round: R96, puzzle: Exclusion NG 3)”, the “apparent KD of MS2 coat protein” value (input ligand: FMN 200 uM) was 167 nM, the “apparent KD of MS2 coat protein” value [4] was 45.1 nM and the “apparent KD of MS2 coat protein” value (input ligand: none) was 56.1 nM.

For “UAGCAUUGCCUUUGGUAGUGCUUUACAUGAGGAUCACCCAUGUAGGAUAUGGUAGGCAAAGCUUACCAGAAGGACAUGAUAAUU [Mat - Exclusion NG 3 - Mod of JL - D11] (Eterna round: R96, puzzle: Exclusion NG 3)”, the “apparent KD of MS2 coat protein” value (input ligand: FMN 200 uM) was 198 nM, the “apparent KD of MS2 coat protein” value [4] was 51.6 nM and the “apparent KD of MS2 coat protein” value (input ligand: none) was 76 nM.

With “UAGUGACAUGAGGAUCACCCAUGUGAGGAUAUAGUGAGAGAAAAAAGGAGAGAGAGGACUAGAAGGCACAGUGA [JR_Exclu1_Sub032] (puzzle: Exclusion 1)” the “apparent KD of MS2 coat protein” value [1] was 76.6 nM, the “apparent KD of MS2 coat protein” value [2] was 52.4 nM and the “apparent KD of MS2 coat protein” value [3] was 92.7 nM.

In the case of “UAGUUCUGAGGAUAUUCUCCAAAGCACAUGAGGAUCACCCAUGUCCAGUUAUGGCUUUCUGAAGAAGGCAGUCUUA [Eternabot (L2) Solution 49] (Eterna round: R97, puzzle: Exclusion 5)”, the “apparent KD of MS2 coat protein” value (input ligand: FMN 200 uM) was 87.9 nM and the “apparent KD of MS2 coat protein” value (input ligand: none) was 36.7 nM.

For “UAUAACCGAGGAUAUACAUGAGGAUCACCCAUGUAAUGUAGUAUAGUGUAUGUAAGAUGUAGAAGGUGGGAUGU (Eterna round: R97, puzzle: Exclusion 3)”, the “apparent KD of MS2 coat protein” value (input ligand: FMN 200 uM) was 49.8 nM and the “apparent KD of MS2 coat protein” value (input ligand: none) was 59 nM.

In the case of “UAUAAGGUAGGAUAUACGAAUAAAUAGGGUAGAAUAAUAACACAUGAGGAUCACCCAUGUAGAAGGACCAAUAG [Mat - Exclusion 2 - Mod of my Tesla design - D27] (puzzle: Exclusion 2)”, the “apparent KD of MS2 coat protein” value [1] was 58.9 nM, the “apparent KD of MS2 coat protein” value [2] was 21 nM and the “apparent KD of MS2 coat protein” value [3] was 17.2 nM.

For “UAUACACAUGAGGAUCACCCAUGUGAGGAUAUGUACAACAACCCGACGGUGUUGUUGUACAGAAGGCACAAAUA [JR_Exclusion1_Sub027] (puzzle: Exclusion 1)”, the “apparent KD of MS2 coat protein” value [2] was 78.9 nM.

For “UAUAGGCUAGGAUAUACAACACUUGGUUCGAAUGUUUGGAGACAUGAGGAUCACCCAUGUAGAAGGAGCAUUUC [Leleis] (Eterna round: R96, puzzle: Exclusion 2)”, the “apparent KD of MS2 coat protein” value (input ligand: FMN 200 uM) was 264 nM, the “apparent KD of MS2 coat protein” value [4] was 54 nM and the “apparent KD of MS2 coat protein” value (input ligand: none) was 66.5 nM.

For “UAUAUAUAGUAAGGAUAUGUAACUAUUUUAUAAACAGAAGGUACUGACAUGAGGAUCACCCAUGUUUUAGUGUGGGCAUGUAGA [JMF's solution 29] (Eterna round: R96, puzzle: Exclusion NG 1)”, the “apparent KD of MS2 coat protein” value [4] was 72.6 nM.

In the case of “UAUAUAUAGUAAGGAUAUGUAAUUAUUUCAUAAACAGAAGGUACUGACAUGAGGAUCACCCAUGUUUUAGUGUGGGCAUGUAGA [JMF's solution 43] (Eterna round: R96, puzzle: Exclusion NG 1)”, the “apparent KD of MS2 coat protein” value [4] was 60.2 nM.

“UAUAUAUAGUAAGGAUAUGUAAUUAUUUUAGAAACAGAAGGUACUGACAUGAGGAUCACCCAUGUUUUAGUGUGGGCAUGUAGA [JMF's solution 45] (Eterna round: R96, puzzle: Exclusion NG 1)” was tested, and the “apparent KD of MS2 coat protein” value [4] was 69.9 nM.

With “UAUAUAUAGUAAGGAUAUGUAUAAAUUUUAUAAACAGAAGGUACUGACAUGAGGAUCACCCAUGUUUUAGUGUGGGCAUGUAGA [JMF's solution 52] (Eterna round: R96, puzzle: Exclusion NG 1)” the “apparent KD of MS2 coat protein” value [4] was 74.6 nM.

For “UAUAUAUAGUAAGGAUAUGUAUAUAUUUUACAAACAGAAGGUACUGACAUGAGGAUCACCCAUGUUUUAGUGUGGGCAUGUAGA [JMF's solution 68] (Eterna round: R96, puzzle: Exclusion NG 1)”, the “apparent KD of MS2 coat protein” value [4] was 43.3 nM.

With “UAUAUAUAGUAAGGAUAUGUAUAUUUUUUAUAAACAGAAGGUACUGACAUGAGGAUCACCCAUGUUUUAGUGUGGGCAUGUAGA [JMF's solution 53] (Eterna round: R96, puzzle: Exclusion NG 1)” the “apparent KD of MS2 coat protein” value [4] was 63.8 nM.

“UAUAUAUAGUAAGGAUAUGUAUCUAUUUUAUAAACAGAAGGUACUGACAUGAGGAUCACCCAUGUUUUAGUGUGGGCAUGUAGA [JMF's solution 8] (Eterna round: R96, puzzle: Exclusion NG 1)” was tested, and the “apparent KD of MS2 coat protein” value [4] was 71.6 nM.

With “UAUAUGUAAGGAUAUCUCGUCAUGGAGGAAACUCCAUGACGAGAGAAGGUACAUGAGGAUCACCCAUGUCUAUU [Mod of Fisker 24 - Jieux - Exclusion 4] (Eterna round: R97, puzzle: Exclusion 4)” the “apparent KD of MS2 coat protein” value (input ligand: FMN 200 uM) was 117 nM and the “apparent KD of MS2 coat protein” value (input ligand: none) was 33.1 nM.

In the case of “UAUAUGUCAGGAUAUCGCAACUGCGCGCGCAAGAAUCAUAACGAGAAGGGACAUGAGGAUCACCCAUGUACACU [I dont know] (puzzle: Exclusion 4)”, the “apparent KD of MS2 coat protein” value [2] was 18.1 nM.

For “UAUAUGUCAGGAUAUUGUUAAUUUAGUUGUUUGUAUUAGUUCGAGAAGGGACAUGAGGAUCACCCAUGUUGUUU [Ex4 #57] (Eterna round: R97, puzzle: Exclusion 4)”, the “apparent KD of MS2 coat protein” value (input ligand: FMN 200 uM) was 28.8 nM and the “apparent KD of MS2 coat protein” value (input ligand: none) was 29.6 nM.

For “UAUAUUGGAGGAUAUCUCUCAGUGAACAUGAGGAUCACCCAUGUUGGUGAACGACGGCACAGAGAAGGUCAACGCA [Eternabot (L2) Solution 61] (Eterna round: R97, puzzle: Exclusion 5)”, the “apparent KD of MS2 coat protein” value (input ligand: FMN 200 uM) was 314 nM and the “apparent KD of MS2 coat protein” value (input ligand: none) was 499 nM.

With “UAUCGGCGGACCGAGGCUUUUUGCUCGUCUUAUGCUACAACAUGAGGAUCACCCAUGUGGUGGUGGUCCGUUGUAGU [JL ViennaUCT Bitein mod 9] (puzzle: Sensor v3, turn-off variant 2)” the “apparent KD of MS2 coat protein” value [1] was 19.7 nM, the “apparent KD of MS2 coat protein” value [2] was 13.5 nM and the “apparent KD of MS2 coat protein” value [3] was 31.8 nM.

In the case of “UAUGGUAAAGUCAGGAUAUACGUGCAGUUUUCUAGGUAGAAGGGACAUGAGGAUCACCCAUGUAUGGUAGUGUU [Ex4 #46] (Eterna round: R97, puzzle: Brourd's mod of Exclusion 4)”, the “apparent KD of MS2 coat protein” value (input ligand: FMN 200 uM) was 95.1 nM and the “apparent KD of MS2 coat protein” value (input ligand: none) was 83.5 nM.

“UAUGGUUAAGUCAGGAUAUGCUCGUAGAGGUCUAUGCAGAAGGGACAUGAGGAUCACCCAUGUAUGGUCGUGUU [Ex4 #67] (Eterna round: R97, puzzle: Brourd's mod of Exclusion 4)” was tested, and the “apparent KD of MS2 coat protein” value (input ligand: FMN 200 uM) was 161 nM and the “apparent KD of MS2 coat protein” value (input ligand: none) was 67 nM.

In the case of “UAUGUGUCAGGAUAUCGAUUAGAACAGAAUUUAACAAUAGUCGAGAAGGGACAUGAGGAUCACCCAUGUUCAUC [JR_Ex4_Sub022] (Eterna round: R97, puzzle: Exclusion 4)”, the “apparent KD of MS2 coat protein” value (input ligand: FMN 200 uM) was 26.4 nM and the “apparent KD of MS2 coat protein” value (input ligand: none) was 18.9 nM.

In the case of “UAUGUGUCAGGAUAUUAAUUAUAACAGAAUUUAACAAUGAUUAAGAAGGGACAUGAGGAUCACCCAUGUUCAUC [JR_Ex4_Sub024] (Eterna round: R97, puzzle: Exclusion 4)”, the “apparent KD of MS2 coat protein” value (input ligand: FMN 200 uM) was 22.7 nM and the “apparent KD of MS2 coat protein” value (input ligand: none) was 20.4 nM.

With “UAUGUUGUUGUGAGGAUAUACUUUGUUUGACCGUAGUAGAAGGCACAUGAGGAUCACCCAUGUAGAUUUUUGGU [JR_BME4_Sub008] (puzzle: Brourd's mod of Exclusion 4)” the “apparent KD of MS2 coat protein” value [2] was 9.12 nM.

“UAUUAAACAUAGGAUAUCGAAUAAAUCAUUUAACGAGAAGGAUGAACAUGAGGAUCACCCAUGUGGUAUCAUGG [Mat - Exclusion 6 - JL Mod - D14] (puzzle: Exclusion 6)” was tested, and the “apparent KD of MS2 coat protein” value [2] was 242 nM.

“UAUUAAUGCAAGGAUAUGCUAUUAAUUUUUUUUGCAGAAGGUGCAACAUGAGGAUCACCCAUGUUUGAGGGUAU [JR_E6_Sub029] (puzzle: Exclusion 6)” was tested, and the “apparent KD of MS2 coat protein” value [2] was 55.9 nM.

In the case of “UAUUACAAGCGAAGAUCCCACAUGAGGAUCACCCAUGUGCUCGUCUUAUAAGGUACUGUGACGAAAGUCACGGUACC [Sensor 3, v1 - 91 v16] (Eterna round: R97, puzzle: Sensor, turn-off variant 1)”, the “apparent KD of MS2 coat protein” value (input ligand: FMN 200 uM) was 32.7 nM and the “apparent KD of MS2 coat protein” value (input ligand: none) was 31.1 nM.

With “UAUUAGCAAGCAACUGGGUACAUGAGGAUCACCCAUGUGCUCGUCUUAUAAGGUACUGUGACGAAAGUUACGGUACC [mod--Eli115] (Eterna round: R97, puzzle: Sensor, turn-off variant 1)” the “apparent KD of MS2 coat protein” value (input ligand: FMN 200 uM) was 17.9 nM and the “apparent KD of MS2 coat protein” value (input ligand: none) was 17.4 nM.

“UAUUAGCAAGCAAGAUCCCACAUGAGGAUCACCCAUGUGCUCGUCUUAAUUCCAGAAUUACUGGGCUCUCGUCUUAU [JR_STOV1_Sub090] (Eterna round: R97, puzzle: Sensor, turn-off variant 1)” was tested, and the “apparent KD of MS2 coat protein” value (input ligand: FMN 200 uM) was 41 nM and the “apparent KD of MS2 coat protein” value (input ligand: none) was 40.6 nM.

With “UAUUAGCAAGCGAGAUCCCACAUGAGGAUCACCCAUGUGCUCGUCUUAUAAAAGACUGUGACGAUAGUCACGGUCAC [Mat - Sensor, turn-off var - Eli Mod - D22] (Eterna round: R97, puzzle: Sensor, turn-off variant 1)” the “apparent KD of MS2 coat protein” value (input ligand: FMN 200 uM) was 14.2 nM and the “apparent KD of MS2 coat protein” value (input ligand: none) was 13.1 nM.
